T1: Human CD98 ECD with N-terminal His-tag (human, UniProt P08195 105-529)
T1 construct: The entry includes the linker and the polyhistidine tag; also called huCD98 ECD
T1 sequence: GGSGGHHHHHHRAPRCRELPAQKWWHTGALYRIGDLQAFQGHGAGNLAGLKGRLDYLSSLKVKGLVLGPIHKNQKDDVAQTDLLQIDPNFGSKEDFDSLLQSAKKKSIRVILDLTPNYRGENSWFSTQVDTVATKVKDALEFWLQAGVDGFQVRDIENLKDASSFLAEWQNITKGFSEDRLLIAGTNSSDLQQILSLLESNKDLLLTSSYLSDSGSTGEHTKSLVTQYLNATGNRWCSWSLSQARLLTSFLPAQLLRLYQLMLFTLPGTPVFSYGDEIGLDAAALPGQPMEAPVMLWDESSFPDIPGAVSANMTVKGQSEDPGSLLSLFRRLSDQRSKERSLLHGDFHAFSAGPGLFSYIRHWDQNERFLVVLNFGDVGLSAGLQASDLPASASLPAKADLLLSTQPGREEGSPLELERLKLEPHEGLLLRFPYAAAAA

T2: Cynomolgus monkey CD98 ECD with C-terminal His-tag (SEQ ID NO: 127) (cynomolgus monkey, UniProt P08195 105-529 (human entry))
T2 construct: The entry includes the linker and the polyhistidine tag; also called cyCD98 ECD
T2 chain: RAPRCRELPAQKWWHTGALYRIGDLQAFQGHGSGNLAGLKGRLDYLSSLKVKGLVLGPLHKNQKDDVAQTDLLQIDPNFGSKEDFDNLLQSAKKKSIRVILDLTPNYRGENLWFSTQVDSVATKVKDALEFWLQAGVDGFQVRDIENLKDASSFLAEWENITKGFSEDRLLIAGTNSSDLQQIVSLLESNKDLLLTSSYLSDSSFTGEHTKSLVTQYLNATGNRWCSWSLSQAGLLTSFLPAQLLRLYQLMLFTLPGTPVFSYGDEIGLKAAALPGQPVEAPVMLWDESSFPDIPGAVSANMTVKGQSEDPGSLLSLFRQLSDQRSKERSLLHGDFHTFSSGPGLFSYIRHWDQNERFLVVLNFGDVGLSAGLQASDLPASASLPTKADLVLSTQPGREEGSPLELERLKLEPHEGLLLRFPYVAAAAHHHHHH

T3: Human CD98 ECD with C-terminal His-tag (human, UniProt P08195 105-529)
T3 construct: also called huCD98 ECD; recombinant human CD98 extracellular domain
T3 sequence: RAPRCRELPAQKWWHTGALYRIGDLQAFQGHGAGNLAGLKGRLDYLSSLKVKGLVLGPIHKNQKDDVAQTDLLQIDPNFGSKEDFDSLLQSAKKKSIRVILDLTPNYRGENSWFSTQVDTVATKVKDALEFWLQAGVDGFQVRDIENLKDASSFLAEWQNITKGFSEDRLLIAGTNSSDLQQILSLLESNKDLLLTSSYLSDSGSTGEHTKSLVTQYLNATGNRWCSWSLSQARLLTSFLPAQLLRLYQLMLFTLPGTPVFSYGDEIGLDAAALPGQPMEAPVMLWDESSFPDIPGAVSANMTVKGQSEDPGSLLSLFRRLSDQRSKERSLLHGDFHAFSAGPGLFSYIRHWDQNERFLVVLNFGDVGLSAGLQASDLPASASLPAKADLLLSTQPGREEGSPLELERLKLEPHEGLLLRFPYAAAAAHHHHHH

T4: Cynomolgus monkey CD98 ECD with C-terminal His-tag (cynomolgus monkey, UniProt P08195 105-529 (human entry))
T4 construct: also called cyCD98 ECD; recombinant cynomolgus monkey CD98 extracellular domain
T4 chain: T2 chain

B1: huAb101 (antibody, V domains shown)
VH: EVQLVESGGGLVKPGGSLRLSCATSGFTFIDYYMSWVRQAPGKGLEWLGFIRNKANRYTTEYSASVKGRFTISRDNSKSILYLQMNSLKTEDTAVYYCTRDRPAWFVYWGQGTLVTVSS
VL: DIVMTQTPLSLPVTPGEPASISCKSSQSLLYSSNQKNYLAWYLQKPGQSPQLLIYWASTRESGVPDRFSGSGSGTDFTLKISRVEAEDVGVYYCQQYYSYPYTFGGGTKVEIK
notes: Framework re-engineered humanized clone (parent huAb3v1), expressed as full-length IgG
B2: huAb102 (antibody, human IgG1, kappa, L234A L235A, V domains shown)
VH: B1 VH with K13Q
VL: DIVMTQTPLSLPVTPGEPASISCKSSQSLLYSSNQKNYLAWYLQKPGQSPQLLIYWASTRESGVPDRFSGSGSGTDFTLKISRVEAEDVGVYYCQQYYSYPYTFGGGTKVEIKR
notes: Framework re-engineered humanized clone (parent huAb3v1); also called CL-huAb102
B3: huAb103 (antibody, V domains shown)
VH: B1 VH with N56Y, R57G
VL: B1 VL
notes: Framework re-engineered humanized clone (parent huAb3v2), expressed as full-length IgG; also called haAb103
B4: Anti-CD98 rat hybridoma antibody Ab11 (antibody, V domains shown)
VH: EVQLVESGGGLVQPGRSLKLSCAASGFTFSDYAMAWVRQAPKKGLEWVAGIIYDGRGTYYRDSVKGRFTISRDNAKSTLYLQMDSLRSEDTATYYCARQGDGTYYYWGYFDYWGQGVMVTVSS
VL: DIVMTQSPSSLAVSAGETVTINCRSSQSLLSSGNQKNYLAWYQQKPGQSPKLLIYWASTRQSGVPDRFIGSGSGTDFTLTISSVQAEDLAIYYCQQYYDTPYTFGAGTKLELK
B5: Anti-CD98 rat hybridoma antibody Ab15 (antibody, V domains shown)
VH: B4 VH with A33T, G50T, G100S
VL: B4 VL with R24K, S31F, S82R, T100S
B6: Anti-CD98 rat hybridoma antibody Ab10 (antibody, V domains shown)
VH: B4 VH with G44S, G50T, Y60C, Y105H
VL: B4 VL with R24K, L110V, E111D
B7: Anti-CD98 murine hybridoma antibody Ab3 (antibody, V domains shown)
VH: EVKLVESGGGLVQPGNSLRLSCATSGFTFIDYYMSWVRQSPGKALEWLGFIRNKANGYTTEYSASVKGRFTISRDNSQSILYLQMDTLRAEDSATYYCTRDRPAWFVYWGQGTLVTVSA
VL: DIVMSQSPSSLAVSVGEKVTMSCKSSQSLLYSSNQKNYLAWYQQKPGQSPKLLIYWASTRESGVPDRFTGSGSGTDFTLTFSSVRAEDLAVYYCQQYYSYPYTFGGGTKLEIK
B8: Anti-CD98 murine hybridoma antibody Ab4 (antibody, V domains shown)
VH: EVKLVESGGGLVQPGGSLRLSCTTSGFTFTDYYMSWVRQPPGKALEWLGFIRNKATIYTTEYSASVKGRFTISRDNSQSILYLQMNTLRAEDSATYYCARASYGNSEGWFAYWGQGTLVTVSA
VL: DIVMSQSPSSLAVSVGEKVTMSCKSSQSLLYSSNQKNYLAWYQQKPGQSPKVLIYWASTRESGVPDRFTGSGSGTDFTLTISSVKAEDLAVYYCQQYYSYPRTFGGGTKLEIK
B9: Anti-CD98 murine hybridoma antibody Ab5 (antibody, V domains shown)
VH: B8 VH with T23A, S35T, T56N, I57G, Q78L, G104V
VL: B7 VL with P46L, F81I, R85K, Q96H, Y102R
B10: Anti-CD98 murine hybridoma antibody Ab2 (antibody, V domains shown)
VH: B8 VH with T23A, T28N, T56N, I57G, N76D
VL: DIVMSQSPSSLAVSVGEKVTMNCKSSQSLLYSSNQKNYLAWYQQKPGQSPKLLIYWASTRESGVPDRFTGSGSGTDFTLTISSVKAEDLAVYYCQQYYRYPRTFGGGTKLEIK
B11: Anti-CD98 rat hybridoma antibody Ab7 (antibody, V domains shown)
VH: QVQLKESGPGLVQPSQTLSLTCTVSGFSLSTYGVIWVRQPPGKGLEWMGVIWANGNTNYNSTLKSRLSISRDTSKSQVYLKMNSLQTEDTATYYCARHYYDGTYYYGYFDYWGQGVMVTVSS
VL: DIVMTQTPSSQAVSAGEKVTMNCKSSQSLLYSENKKNYLAWYQQKPGQSPKLLIYWASTRESGVPDRFIGSGSGTDFTLTISSVQAEDLAVYYCQQYYYFPYTFGPGTKLELK
B12: Anti-CD98 rat hybridoma antibody Ab6 (antibody, V domains shown)
VH: B11 VH with V12A, V37L, A53T, K75E, K81Q, T103A
VL: B11 VL with N22S, P106A
B13: Anti-CD98 rat hybridoma antibody Ab9 (antibody, V domains shown)
VH: B11 VH with T23A, T31N, G49A, A53T
VL: B11 VL with N22S, S32T, I69M, T103M, P106A

Where a chain is given by its changes, count along the chain named.

One experiment concerns the target T1, Human CD98 ECD with N-terminal His-tag. The experiment is described as follows: SPR (Biacore), recombinant CD98 ECD.
Take B1: the Kd came out at 6.1 nM, the koff was 0.0018 s⁻¹ and the kon turned out to be 290000 M⁻¹ s⁻¹.
The matching figures for B2: 5.5 nM, 0.0018 s⁻¹ and 330000 M⁻¹ s⁻¹.
On to B3, for which the Kd stood at 3.4 nM, the koff was 0.00059 s⁻¹ and the kon worked out at 180000 M⁻¹ s⁻¹.

The next experiment addresses T2, Cynomolgus monkey CD98 ECD with …. The experiment can be described thus: SPR (Biacore), recombinant CD98 ECD.
Take B1: the Kd amounted to 23 nM, the koff was found to be 0.00067 s⁻¹ and the kon was 30000 M⁻¹ s⁻¹.
The matching figures for B2: 21 nM, 0.00068 s⁻¹ and 32000 M⁻¹ s⁻¹.
For B3, the Kd worked out at 14 nM, the koff worked out at 0.00044 s⁻¹ and the kon was 31000 M⁻¹ s⁻¹.

A further experiment concerns the target T3, Human CD98 ECD with C-terminal His-tag. The experiment can be described thus: SPR Biacore, anti-Fc capture of mAb, CD98 ECD analyte. As to the method: (§1) The binding kinetics of these purified mouse and rat monoclonal anti-CD98 antibodies for purified recombinant CD98 protein (extracellular domain. ECD) were determined by surface plasmon resonance-based measurements made on Biacore T100/T200 instruments (GE Healthcare, Piscataway, N.J.) at 25° C. using an anti-Fc capture assay approach. Binding kinetic measurements were made in the assay buffer HBS-EP+: 10 mM Hepes, pH 7.4, 150 mM NaCl, 3 mM EDTA, 0.05% Tween 20). For example, approximately 8000 RU of anti-Fc (species specific) polyclonal antibody (Thermo Fisher Scientific Inc. Rockford, Ill.) diluted in 10 mM sodium acetate (pH 4.5) was directly immobilized across a CM5 research grade biosensor chip using a standard amine coupling kit according to manufacturer's instructions and procedures at 25 μg/ml. Unreacted moieties on the biosensor surface were blocked with ethanolamine. The test antibody to be captured as a ligand was diluted in running buffer to ˜0.5 μg/mL and injected over anti-Fc surface at a flow rate of 10 μL/min, CD98 binding and dissociation were observed under a continuous flow rate of 80 μL/min. Human and cynomolgus monkey CD98 ECDs, both with a C-terminal His-tag, are used for this study (Table 3). After each cycle the anti-Fc capture surface was regenerated using 10 mM Glycine-HCl, pH 1.5. During the assay, all measurements were referenced against the capture surface alone (i.e., with no captured test antibody) and buffer-only injections (no antigen) were used for double referencing. For kinetic analysis, rate equations derived from the 1:1 Langmuir binding model were fitted simultaneously, globally and with mass transfer term included to multiple referenced antigen binding curves using Biacore T100T200 Evaluation software.
In the case of B4, the Kd worked out at 18 nM, the koff was determined as 0.0012 s⁻¹ and the kon stood at 65000 M⁻¹ s⁻¹.
B5 displayed a Kd of 0.68 nM, a koff of 5.3e-05 s⁻¹ and an on-rate (kon) of 77000 M⁻¹ s⁻¹.
B6 came in with an equilibrium dissociation constant (Kd) of 2 nM, a koff of 0.00024 s⁻¹ and a kon of 130000 M⁻¹ s⁻¹.
As for B7, binding was characterised by a dissociation constant (Kd) of 15 nM, the koff stood at 0.003 s⁻¹ and the kon is 200000 M⁻¹ s⁻¹.
B8: binding was characterised by a dissociation constant (Kd) of 0.83 nM, the koff is 3.7e-05 s⁻¹ and the on-rate (kon) amounted to 44000 M⁻¹ s⁻¹.
The molecule B9 had a Kd of 2.2 nM, a koff of 0.00012 s⁻¹ and a kon of 52000 M⁻¹ s⁻¹.
Consider B10, for which the Kd is 1.1 nM, the koff amounted to 8.1e-05 s⁻¹ and the kon was 73000 M⁻¹ s⁻¹.
Regarding B11, the affinity, expressed as Kd, was 0.76 nM; the dissociation rate constant (koff) came out at 0.00015 s⁻¹; the kon was 200000 M⁻¹ s⁻¹.
In the case of B12, binding was characterised by a dissociation constant (Kd) of 1.1 nM, the koff worked out at 0.00016 s⁻¹ and the on-rate (kon) came out at 150000 M⁻¹ s⁻¹.
B13 had a Kd of 1.2 nM, a dissociation rate constant (koff) of 0.00015 s⁻¹ and a kon of 130000 M⁻¹ s⁻¹.

In a further experiment the target is T4, Cynomolgus monkey CD98 ECD with …. The experiment is described as above. As to the method:
as §1
As to B4, binding was characterised by a dissociation constant (Kd) of 72 nM, the koff was 0.0017 s⁻¹ and the kon came to 24000 M⁻¹ s⁻¹.
For B5 the same measures were 3.3 nM, 9.6e-05 s⁻¹ and 29000 M⁻¹ s⁻¹.
Turning to B6, the Kd came to 7.8 nM, the koff came to 0.00049 s⁻¹ and the on-rate constant (kon) came out at 62000 M⁻¹ s⁻¹.
B7: the Kd worked out at 30 nM, the koff stood at 0.0012 s⁻¹ and the kon worked out at 38000 M⁻¹ s⁻¹.
The matching figures for B8: 1.8 nM, 1.7e-05 s⁻¹ and 9700 M⁻¹ s⁻¹.
Turning to B9, the affinity, expressed as Kd, was 11 nM; the koff came to 0.00022 s⁻¹; the kon amounted to 21000 M⁻¹ s⁻¹.
For B10 the same measures were 37 nM, 0.00086 s⁻¹ and 24000 M⁻¹ s⁻¹.
For B11 the same measures were 3 nM, 0.00027 s⁻¹ and 91000 M⁻¹ s⁻¹.
Take B12: the Kd is 5.9 nM, the off-rate (koff) was 0.00037 s⁻¹ and the kon amounted to 62000 M⁻¹ s⁻¹.
B13: the Kd worked out at 9.9 nM, the koff is 0.00051 s⁻¹ and the kon came out at 51000 M⁻¹ s⁻¹.

The values above are taken from US20200147235A1 (AbbVie / Abbott, published 2020).
